Data taken from patent US6133009.

System: HpyCH4V restriction endonuclease (Helicobacter pylori CH4)
Assay: cleavage_in_vitro
Conditions: fragments of 576, 498, 441, 335, 315, 312, 296, 244, 205 bp and 12 smaller than 200 bp

With pBR322 DNA the number of cleavage fragments was 21 fragments.
